Source: patent publication US20260027179A1, “ANTI-SYNUCLEINOPATHY PEPTIDE AND METHODS TO TREAT NEURODEGENERATIVE DISEASES” (University of British Columbia, priority 2021, published 2026)

Tests used:
[1] = target: T1, purified recombinant human α-synuclein (Homo sapiens, UniProt P37840); assay: Biacore peptide-protein binding assay; conditions: 0.20-12.50 μM peptide, report point 20 seconds into dissociation
T1 construct: His (histidine tag) (N); purchased Sigma S7820-500UG
Description: Biacore experiments were performed using a Biacore 3000 instrument (GE Healthcare Biosciences, Upsala, Sweden) and HBS running buffer, pH 7.4, containing 10 mM HEPES, 150 mM NaCl, 3 mM EDTA, and 0.005% surfactant P20. A research-grade CM5 sensor chip was activated with a mixture containing equal molar amounts of EDC (N-ethyl-N′-(dimethylaminopropyl) carbodiide and NHS (N-hydroxysuccinimide). Purified recombinant human α-synuclein (N-terminal histidine tagged, Sigma, S7820-500UG), diluted in sodium acetate pH 3.1, was then injected and covalently coupled to a flow cell of the sensor chip surface by amide bonding. Residual unreacted sites were blocked with ethanolamine. A reference surface, to account for non-specific binding, was similarly generated by activating and blocking an adjacent flow cell. Approximately 1500 resonance units (RU), equivalent to a surface concentration of 1500 pg/mm^2 of α-synuclein, was immobilized.
To ascertain the binding interaction between α-synuclein knockdown peptides and α-synuclein, synthetic Tat-βsyn-degron peptide or control tat peptide was serially diluted and sequentially injected over the active surface containing immobilized α-synuclein and the reference surface for 3 minutes at a flow rate of 30 μl/minute. The peptides were then allowed to dissociate for 3 minutes during which time HBS running buffer was injected. The resultant sensorgrams were double-referenced by subtracting out the binding on the reference surface and the response from the HBS blank buffer control. Binding response report points were collected 20 seconds into the dissociation phase of the interaction at time 200 seconds, which represents a stable binding response and excludes bulk refractive index changes and nonspecific binding.

[2] = target: T2, phosphorylated (pS129) α-synuclein (Homo sapiens, UniProt P37840, A53T); assay: PFF mouse model of spreading synucleinopathy, pS129 α-synuclein immunostaining; format: in vivo; conditions: PFF-injected M83 mice, 40 mg/kg i.p. over 20 days, at three months, vs Tat-βsyn group
T2 construct: tissue The Jackson Laboratory 004479; host or cells: coronal brain sections (substantia nigra, pons) of M83 mice injected with human α-synuclein PFFs
Description: M83 mice were injected intracerebrally (i.e.) into the right dorsal striatum with either 12.5 μg of α-synuclein pre-formed fibrils (PFFs) or PBS. Starting at 3 days prior to the PFF injection, mice were treated daily for 12 days with either Tat-βsyn or Tat-βsyn-degron peptide (40 mg/kg; i.p.) and once every other day for the subsequent 8 days (20 days in total, FIG. 5a). At the end of three months, coronal brain sections of the M83 mice were prepared and stained with antibodies against serine 129-phosphorylated α-synuclein (pS129syn), a marker of pathogenic synuclein aggregates, and Iba-1, a calcium-binding protein specifically expressed in macrophage and microglia as a marker of neuroinflammation.
PFFs were generated in-house based on the Volpicelli-Daley et al protocol. […] PFFs were characterized using a negative staining protocol and analyzed using an electron microscope. […] PFFs were visualized using a transmission electron microscope (FEI Tecnai 12 Bio Twin 120 kV TEM) coupled to a AMT XR80C CCD camera, and analyzed with ImageJ 1.5 and Matlab 2017b software. […]
Brains from M83 mice that received i.e. and i.p. injections were processed for immunohistochemistry. […] Coronal sections were analyzed using Fiji-ImageJ 1.5 software to detect the total area labeled with the peroxidase immunoreaction product. The results were analyzed using GraphPad Prism software.

Sequence: YGRKKRRQRRRRTKSGVYLVGRRRG (The sequence is synthesized (YGRKKRRQRRRRTKSGVYLVGRRRG)) [Tat-βsyn-degron]
- binding response to immobilized α-synuclein [1]: robust and similar binding
- pS129syn staining in pons [2]: significantly reduced
- pS129syn staining in substantia nigra pars compacta [2]: significantly reduced
